Test results reported in paper doi:10.1101/2025.09.05.674453.

Assays:
[1] = target: Arginine-specific gingipain RgpB (Porphyromonas gingivalis) (UniProt P95493); test: progress curve analysis of protease inhibition
[2] = target: Lysine-specific gingipain (Kgp), purified (Porphyromonas gingivalis) (UniProt Q51817); test: progress curve analysis of protease inhibition
[3] = target: Arginine-specific gingipain RgpB (Porphyromonas gingivalis) (UniProt P95493); test: titration of residual protease activity
[4] = target: Lysine-specific gingipain (Kgp), purified (Porphyromonas gingivalis) (UniProt Q51817); test: titration of residual protease activity
[5] = target: Thiol protease (Tpr) (Porphyromonas gingivalis) (UniProt P25806); test: progress curve analysis of protease inhibition
UniProt P25806, sequence (P25806 whole entry): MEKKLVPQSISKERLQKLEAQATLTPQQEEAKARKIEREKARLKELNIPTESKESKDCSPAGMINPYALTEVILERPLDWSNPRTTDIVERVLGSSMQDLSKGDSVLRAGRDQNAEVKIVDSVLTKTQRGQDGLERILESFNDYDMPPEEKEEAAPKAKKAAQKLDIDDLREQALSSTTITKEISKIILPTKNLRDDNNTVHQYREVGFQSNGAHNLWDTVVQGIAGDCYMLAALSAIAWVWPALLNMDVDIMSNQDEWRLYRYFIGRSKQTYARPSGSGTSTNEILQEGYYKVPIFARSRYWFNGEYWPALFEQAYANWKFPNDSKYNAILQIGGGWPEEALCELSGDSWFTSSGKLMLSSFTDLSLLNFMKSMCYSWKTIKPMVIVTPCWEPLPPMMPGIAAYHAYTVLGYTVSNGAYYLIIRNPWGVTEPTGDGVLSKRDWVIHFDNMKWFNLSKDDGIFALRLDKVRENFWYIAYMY

[6] = target: Thiol protease (Tpr) (Porphyromonas gingivalis) (UniProt P25806); test: titration of residual protease activity

UniProt Q51817, sequence (Q51817 25-1732): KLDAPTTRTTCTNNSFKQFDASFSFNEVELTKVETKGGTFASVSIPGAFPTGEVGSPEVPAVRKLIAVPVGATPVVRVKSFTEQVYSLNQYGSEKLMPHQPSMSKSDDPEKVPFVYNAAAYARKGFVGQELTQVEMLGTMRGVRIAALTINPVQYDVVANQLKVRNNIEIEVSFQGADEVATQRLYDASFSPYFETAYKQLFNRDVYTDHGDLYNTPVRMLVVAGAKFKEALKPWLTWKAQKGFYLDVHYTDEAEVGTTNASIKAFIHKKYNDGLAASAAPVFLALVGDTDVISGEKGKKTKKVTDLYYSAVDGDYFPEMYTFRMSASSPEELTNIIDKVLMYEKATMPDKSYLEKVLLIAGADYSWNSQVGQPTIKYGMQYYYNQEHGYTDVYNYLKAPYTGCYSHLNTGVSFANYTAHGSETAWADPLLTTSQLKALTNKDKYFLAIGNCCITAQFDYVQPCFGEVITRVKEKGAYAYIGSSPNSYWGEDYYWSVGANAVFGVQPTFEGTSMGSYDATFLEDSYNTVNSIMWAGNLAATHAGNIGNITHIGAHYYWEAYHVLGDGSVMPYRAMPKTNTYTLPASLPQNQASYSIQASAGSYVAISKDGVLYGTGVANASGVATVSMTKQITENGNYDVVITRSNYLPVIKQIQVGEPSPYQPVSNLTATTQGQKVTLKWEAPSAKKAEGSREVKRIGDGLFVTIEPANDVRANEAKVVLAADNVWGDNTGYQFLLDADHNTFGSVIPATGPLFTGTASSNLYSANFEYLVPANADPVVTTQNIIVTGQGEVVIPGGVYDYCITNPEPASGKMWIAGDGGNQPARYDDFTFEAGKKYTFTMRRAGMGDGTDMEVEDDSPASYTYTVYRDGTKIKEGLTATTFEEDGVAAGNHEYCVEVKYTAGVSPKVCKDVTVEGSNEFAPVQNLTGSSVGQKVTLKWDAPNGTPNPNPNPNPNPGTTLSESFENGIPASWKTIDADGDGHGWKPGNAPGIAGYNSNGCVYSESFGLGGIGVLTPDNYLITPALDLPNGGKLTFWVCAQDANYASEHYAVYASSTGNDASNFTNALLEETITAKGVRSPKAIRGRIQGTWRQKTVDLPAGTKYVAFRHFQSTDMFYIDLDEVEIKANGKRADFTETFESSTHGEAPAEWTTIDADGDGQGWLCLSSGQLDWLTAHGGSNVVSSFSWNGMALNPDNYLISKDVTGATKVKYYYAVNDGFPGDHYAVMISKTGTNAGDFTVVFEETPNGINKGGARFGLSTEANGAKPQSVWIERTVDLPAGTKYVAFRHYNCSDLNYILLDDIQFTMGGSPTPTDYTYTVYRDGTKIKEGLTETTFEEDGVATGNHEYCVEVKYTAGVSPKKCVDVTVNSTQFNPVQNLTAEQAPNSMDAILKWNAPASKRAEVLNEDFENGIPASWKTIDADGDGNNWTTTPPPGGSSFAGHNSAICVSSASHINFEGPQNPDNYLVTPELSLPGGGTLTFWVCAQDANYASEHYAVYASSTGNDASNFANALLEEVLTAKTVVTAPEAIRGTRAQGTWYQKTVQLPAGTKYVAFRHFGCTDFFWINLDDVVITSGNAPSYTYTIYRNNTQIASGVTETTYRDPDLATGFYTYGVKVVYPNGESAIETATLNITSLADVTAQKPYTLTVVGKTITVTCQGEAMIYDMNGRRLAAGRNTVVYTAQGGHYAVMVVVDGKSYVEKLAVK
UniProt P95493, sequence (P95493 25-736): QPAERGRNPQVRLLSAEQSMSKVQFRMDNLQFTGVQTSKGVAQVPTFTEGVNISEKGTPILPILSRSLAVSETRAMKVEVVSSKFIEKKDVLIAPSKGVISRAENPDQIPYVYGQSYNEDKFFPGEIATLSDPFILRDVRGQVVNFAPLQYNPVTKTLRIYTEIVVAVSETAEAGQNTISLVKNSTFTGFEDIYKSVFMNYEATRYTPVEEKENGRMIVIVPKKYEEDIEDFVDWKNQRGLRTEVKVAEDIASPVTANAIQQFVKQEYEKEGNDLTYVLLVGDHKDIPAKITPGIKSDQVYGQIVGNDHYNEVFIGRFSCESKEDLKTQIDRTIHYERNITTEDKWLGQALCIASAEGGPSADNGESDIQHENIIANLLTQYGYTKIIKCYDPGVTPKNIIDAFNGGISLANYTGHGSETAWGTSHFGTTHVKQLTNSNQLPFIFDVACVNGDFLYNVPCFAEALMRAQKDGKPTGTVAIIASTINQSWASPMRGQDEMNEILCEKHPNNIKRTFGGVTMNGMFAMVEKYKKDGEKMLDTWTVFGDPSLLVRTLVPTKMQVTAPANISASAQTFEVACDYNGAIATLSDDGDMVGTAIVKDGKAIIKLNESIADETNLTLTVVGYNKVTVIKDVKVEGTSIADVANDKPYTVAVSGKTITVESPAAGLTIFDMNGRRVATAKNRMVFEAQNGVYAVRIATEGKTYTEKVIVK

Substance	kon [1] [M⁻¹ s⁻¹]	kon [2] [M⁻¹ s⁻¹]	stoichiometry of inhibition (SI) [3]	stoichiometry of inhibition (SI) [4]	kon [5] [M⁻¹ s⁻¹]	stoichiometry of inhibition (SI) [6]
RVK-miropin (natural protein)	740000	330000	1.7	1.7		
Recombinant wild-type miropin (VKT-mir) (natural protein)		220000		1.9	2500	9.3
